± gives the uncertainty stated by the source.

The data set can be described thus: abundance fitness (aPCA) (normalised: wild type 0, dead -1); higher = more abundant; growth selection in yeast, the domain comes from the species named. Particulars: Homo sapiens.
The substance “Heterogeneous nuclear ribonucleoprotein U-like protein 2 A30M, Q1KMD3” registered an abundance fitness of 0.067 ± 0.084.
On to “Heterogeneous nuclear ribonucleoprotein U-like protein 2 A39E, Q1KMD3”, for which the abundance fitness is -0.015 ± 0.064.
The figure for “Heterogeneous nuclear ribonucleoprotein U-like protein 2 D21S, Q1KMD3” is -0.165 ± 0.066; for “Heterogeneous nuclear ribonucleoprotein U-like protein 2 E35A, Q1KMD3” it is 0.036 ± 0.052.
In the case of “Heterogeneous nuclear ribonucleoprotein U-like protein 2 Q16K, Q1KMD3”, the abundance fitness is 0.049 ± 0.092.
Consider “Heterogeneous nuclear ribonucleoprotein U-like protein 2 Q31D, Q1KMD3”, for which the abundance fitness was -0.194 ± 0.11.
Substance “Heterogeneous nuclear ribonucleoprotein U-like protein 2 S13D, Q1KMD3” yielded an abundance fitness of 0.114 ± 0.067.
The substance “Heterogeneous nuclear ribonucleoprotein U-like protein 2 S22D, Q1KMD3” displayed an abundance fitness of 0.187 ± 0.09.
“Heterogeneous nuclear ribonucleoprotein U-like protein 2 V27A, Q1KMD3” had an abundance fitness of 0.131 ± 0.053.
With “NEDD4-like E3 ubiquitin-protein ligase WWP2 A445C, O00308”, the abundance fitness is 0.056 ± 0.03.
The same measure for “NEDD4-like E3 ubiquitin-protein ligase WWP2 A445D, O00308”: 0.121 ± 0.078; for “NEDD4-like E3 ubiquitin-protein ligase WWP2 A445E, O00308”: 0.025 ± 0.05; for “NEDD4-like E3 ubiquitin-protein ligase WWP2 A445F, O00308”: 0.007 ± 0.035.
“NEDD4-like E3 ubiquitin-protein ligase WWP2 A445H, O00308” gave an abundance fitness of 0.069 ± 0.081.
In turn, “NEDD4-like E3 ubiquitin-protein ligase WWP2 A445I, O00308” showed an abundance fitness of -0.016 ± 0.049.
Consider “NEDD4-like E3 ubiquitin-protein ligase WWP2 A445K, O00308”, for which the abundance fitness was -0.01 ± 0.074.
For the substance “NEDD4-like E3 ubiquitin-protein ligase WWP2 A445L, O00308”, the abundance fitness turned out to be 0 ± 0.039.
The figure for “NEDD4-like E3 ubiquitin-protein ligase WWP2 A445M, O00308” is -0.073 ± 0.052; for “NEDD4-like E3 ubiquitin-protein ligase WWP2 A445N, O00308” it is 0.103 ± 0.073; for “NEDD4-like E3 ubiquitin-protein ligase WWP2 A445P, O00308” it is -0.14 ± 0.07.
The figure for “NEDD4-like E3 ubiquitin-protein ligase WWP2 A445Q, O00308” is 0.031 ± 0.049.
“NEDD4-like E3 ubiquitin-protein ligase WWP2 A445R, O00308” had an abundance fitness of 0.077 ± 0.039.
Consider “NEDD4-like E3 ubiquitin-protein ligase WWP2 A445S, O00308”, for which the abundance fitness turned out to be 0.04 ± 0.048.
Take “NEDD4-like E3 ubiquitin-protein ligase WWP2 A445T, O00308”: the abundance fitness is -0.211 ± 0.073.
The same measure for “NEDD4-like E3 ubiquitin-protein ligase WWP2 A445V, O00308”: -0.001 ± 0.06; for “NEDD4-like E3 ubiquitin-protein ligase WWP2 A445W, O00308”: -0.074 ± 0.062.
For the substance “NEDD4-like E3 ubiquitin-protein ligase WWP2 A445Y, O00308”, the abundance fitness is -0.002 ± 0.048.
For the substance “NEDD4-like E3 ubiquitin-protein ligase WWP2 A490C, O00308”, the abundance fitness was -0.01 ± 0.051.
As for “NEDD4-like E3 ubiquitin-protein ligase WWP2 A490D, O00308”, the abundance fitness worked out at 0.001 ± 0.061.
The same measure for “NEDD4-like E3 ubiquitin-protein ligase WWP2 A490E, O00308”: 0.024 ± 0.062.

For the origin of these results see the Human Domainome abundance scans (Beltran et al. 2025).
